Test results published in US5786191A, “Cloning and expression of complementary DNAs for multiple members of the human cytochrome P450 2C subfamily” (priority 1994, dated 1998).

Experiments:
Format in all cases: biochemical
[1] = Mephenytoin 4'-hydroxylase assay, recombinant human CYP2C yeast microsomes, S-enantiomer; details: for R/S Ratio of mephenytoin 4'-hydroxylase activity: recombinant yeast microsomes (Table III); for Mephenytoin 4'-Hydroxylase Activity, S: yeast microsomes + P450 reductase, phospholipid, cytochrome b5 2:1, 37° C., 30 min, liver microsomes unfortified, phosphate buffer
Procedure: (§1) Purified or recombinant yeast microsomes (10-50 pmol) were preincubated with dilauroylphosphatidylcholine (15 μg per 50 pmol P450), P450 reductase (500 U per 50 mol P450), and human cytochrome b5 (2:1 molar ratio when added). The reconstituted mixture was preincubated for 5 min at 37° C., and then placed on ice. […] The mixture was then incubated at 37° with shaking for 3 min, and the reaction started with the addition of 2 mM NADPH and terminated after 30 min with an equal volume of methanol. […] Reaction volumes were generally 0.25 ml except when the volume of recombinant purified cytochrome or yeast microsomes was greater than 50 μl. In these cases, the volume was increased to 0.5 ml to limit the volume of glycerol from the purified preparation to <4% of the final volume.
(§2) At the end of the incubation period, the reactions were terminated with an equal volume of methanol. The incubation mixture was centrifuged at 10,000 g for 10 min and an aliquot assayed directly using HPLC without extraction. Samples with particularly low activity were concentrated by lyophilization and redissolved in a small volume of methanol:water (1:1) before assay. The HPLC system consisted of a reverse phase C18 (10 μm) Versapak, 300 mm×4.1 mm column (Altech Associates, Deerfield, Ill.) using an isocratic solvent consisting of methanol:water (45:55) with a flow rate was kept of 1 ml/min for 25 min.

[2] = Mephenytoin 4'-hydroxylase assay, recombinant human CYP2C yeast microsomes, R-enantiomer; details: yeast microsomes + P450 reductase, phospholipid, cytochrome b5 2:1; 0.4 mM substrate; 37° C., 30 min; liver microsomes unfortified, phosphate buffer; means ± SE
Procedure: as §1, §2

[3] = Mephenytoin 4'-hydroxylase assay, purified recombinant P450s in reconstituted system, S-enantiomer; details: for R/S Ratio of mephenytoin 4'-hydroxylase activity: purified P450s (Table IV); for Mephenytoin 4'-Hydroxylase Activity, S: purified P450s, triplicate, means ± SE, blank not subtracted
Procedure: as §1, §2

[4] = Mephenytoin 4'-hydroxylase assay, purified recombinant P450s in reconstituted system, R-enantiomer; details: triplicate, means ± SE, blank not subtracted
Procedure: as §1, §2

[5] = Tolbutamide hydroxylase assay, recombinant human CYP2C yeast microsomes; details: for Tolbutamide Hydroxylase Activity per mg protein: 1 mg yeast microsomal protein + P450 reductase, or 0.2 mg liver microsomal protein without reductase; for Tolbutamide Hydroxylase Activity per mg protein / Tolbutamide Hydroxylase Activity per nmol P450: means ± SE; for Tolbutamide Hydroxylase Activity per nmol P450: adjusted for P450 content
Procedure: Yeast microsomes (1 mg protein) were preincubated with 300 pmol hamster P450 reductase in 0.2 ml of the incubation buffer (below) for 3 min at 37° C. The reaction was then placed on ice and incubated in 0.2 ml of 50 mM HEPES buffer (pH 7.4) containing 1.5 mM MgCl2, 0.1 mM EDTA in a final volume of 1 ml and 1 mM sodium tolbutamide. The reaction was initiated with 0.5 mM NADPH. Human liver microsomes (0.22 mg protein) were incubated without reductase. Incubations with reconstituted recombinant P450s contained 50 pmol purified P450 enzyme, 150 pmol P450 reductase, and 15 μg dilauroylphosphatidylcholine, and were performed in 100 mM potassium phosphate buffer (pH 7.4). Reactions were terminated after 60 min at 37° C. by the addition of 50 μl of 4N HCl, followed by extraction with 3 ml of water-saturated ethyl acetate. […] The column eluate was monitored at 230 nm and rates of product formation were determined from standard curves prepared by adding varying amounts of 4-hydroxytolbutamide to incubations conducted without NADPH. […] Samples were analyzed in triplicate.

[6] = Tolbutamide hydroxylase assay, purified reconstituted P450s; details: blank (22 ± 5) subtracted, means ± SE
Procedure: Tolbutamide hydroxylase activity was measured according to Knodell et al., J. Pharmacol. Exper. Ther. 241:1112-1119 (1987), with several modifications. Yeast microsomes (1 mg protein) were preincubated with 300 pmol hamster P450 reductase in 0.2 ml of the incubation buffer (below) for 3 min at 37° C. The reaction was then placed on ice and incubated in 0.2 ml of 50 mM HEPES buffer (pH 7.4) containing 1.5 mM MgCl2, 0.1 mM EDTA in a final volume of 1 ml and 1 mM sodium tolbutamide. The reaction was initiated with 0.5 mM NADPH. Human liver microsomes (0.22 mg protein) were incubated without reductase. Incubations with reconstituted recombinant P450s contained 50 pmol purified P450 enzyme, 150 pmol P450 reductase, and 15 μg dilauroylphosphatidylcholine, and were performed in 100 mM potassium phosphate buffer (pH 7.4). Reactions were terminated after 60 min at 37° C. by the addition of 50 μl of 4N HCl, followed by extraction with 3 ml of water-saturated ethyl acetate. The ethyl acetate extracts were dried under nitrogen at 40° C., the residue resolubilized in 200 μl methanol, and 4-hydroxytolbutamide then assayed using HPLC by injecting 50 μl of the solubilized extract onto a μBONDAPAK C18 column (4.6×300 mm) using 0.05% phosphoric acid, pH 2.6: acetonitrile (6:4, v/v) as the mobile phase with a flow rate of 1 ml/min. The column eluate was monitored at 230 nm and rates of product formation were determined from standard curves prepared by adding varying amounts of 4-hydroxytolbutamide to incubations conducted without NADPH. […] Samples were analyzed in triplicate.

Row | Molecule | R/S Ratio of mephenytoin 4'-hydroxylase activity [1] | Mephenytoin 4'-Hydroxylase Activity, S ([1]; 0.4 mM substrate, means ± SE) | Mephenytoin 4'-Hydroxylase Activity, R [2] | R/S Ratio of mephenytoin 4'-hydroxylase activity [3] | Mephenytoin 4'-Hydroxylase Activity, S ([3]; reconstituted system) | Mephenytoin 4'-Hydroxylase Activity, R [4] | Tolbutamide Hydroxylase Activity per mg protein [5] | also measured
1 | 2C19: human cytochrome P450 2C19 polypeptide, clone 11a, SEQ ID NO:1, expressed recombinantly in yeast (protein) MDPFVVLVLCLSCLLLLSIWRQSSGRGKLPPGPTPLPVIGNILQIDIKDVSKSLTNLSKIYGPVFTLYFGLERMVVLHGYEVVKEALIDLGEEFSGRGHFPLAERANRGFGIVFSNGKRWKEIRRFSLMTLRNFGMGKRSIEDRVQEEARCLVEELRKTKASPCDPTFILGCAPCNVICSIIFQKRFDYKDQQFLNLMEKLNENIRIVSTPWIQICNNFPTIIDYFPGTHNKLLKNLAFMESDILEKVKEHQESMDINNPRDFIDCFLIKMEKEKQNQQSEFTIENLVITAADLLGAGTETTSTTLRYALLLLLKHPEVTAKVQEEIERVIGRNRSPCMQDRGHMPYTDAVVHEVQRYIDLIPTSLPHAVTCDVKFRNYLIPKGTTILTSLTSVLHDNKEFPNPEMFDPRHFLDEGGNFKKSNYFMPFSAGKRICVGEGLARMELFLFLTFILQNFNLKSLIDPKDLDTTPVVNGFASVPPFYQLCFIPV | 0.03 | ~ 5 nmol/min/nmol P450 | 0.014 ± 0.02 nmol/min/nmol P450 | 0.03 | 6.17 ± 0.24 nmol/min/nmol P450 | 0.19 ± 0.04 nmol/min/nmol P450 | 18.4 ± 2.4 nmol/min/mg protein | Rate of S-hydroxylation relative to R-hydroxylation of mephenytoin ([1]; stereospecificity, yeast microsomes): at least 30 fold; Mephenytoin 4'-Hydroxylase Activity, S ([1]; 0.4 mM substrate, means ± SE, listed as 2C19 (11a)): 4.6 ± 0.3 nmol/min/nmol P450; S-mephenytoin 4'-hydroxylation turnover relative to human liver microsomes ([3]; fold higher than human liver microsomes): at least 10 times; S-mephenytoin 4'-hydroxylation turnover relative to recombinant 2C9, 2C18 or 2C8 ([3]; purified, reconstituted system): 50-100 times; S-mephenytoin 4'-hydroxylase turnover relative to P450MP purified from human liver ([3]; vs literature value of Srivastava et al.): ~ 30 times
2 | 2C9: recombinant human P450 2C9, allele not specified in the sentence (protein, UniProt P11712 1-490, looked up) Cytochrome P450 2C9: MDSLVVLVLCLSCLLLLSLWRQSSGRGKLPPGPTPLPVIGNILQIGIKDISKSLTNLSKVYGPVFTLYFGLKPIVVLHGYEAVKEALIDLGEEFSGRGIFPLAERANRGFGIVFSNGKKWKEIRRFSLMTLRNFGMGKRSIEDRVQEEARCLVEELRKTKASPCDPTFILGCAPCNVICSIIFHKRFDYKDQQFLNLMEKLNENIKILSSPWIQICNNFSPIIDYFPGTHNKLLKNVAFMKSYILEKVKEHQESMDMNNPQDFIDCFLMKMEKEKHNQPSEFTIESLENTAVDLFGAGTETTSTTLRYALLLLLKHPEVTAKVQEEIERVIGRNRSPCMQDRSHMPYTDAVVHEVQRYIDLLPTSLPHAVTCDIKFRNYLIPKGTTILISLTSVLHDNKEFPNPEMFDPHHFLDEGGNFKKSKYFMPFSAGKRICVGEALAGMELFLFLTSILQNFNLKSLVDPKNLDTTPVVNGFASVPPFYQLCFIPV |  | 0.02 nmol/min/nmol P450 |  |  |  |  |  | Turnover number of recombinant 2C9 relative to 2C9 purified from human liver ([3]; S-mephenytoin 4'-hydroxylation): ~ 100 times
3 | 2C9-Ile^359 (65): recombinant human P450 2C9 allelic variant, clone 65 (protein, UniProt P11712 1-490, looked up) Cytochrome P450 2C9: MDSLVVLVLCLSCLLLLSLWRQSSGRGKLPPGPTPLPVIGNILQIGIKDISKSLTNLSKVYGPVFTLYFGLKPIVVLHGYEAVKEALIDLGEEFSGRGIFPLAERANRGFGIVFSNGKKWKEIRRFSLMTLRNFGMGKRSIEDRVQEEARCLVEELRKTKASPCDPTFILGCAPCNVICSIIFHKRFDYKDQQFLNLMEKLNENIKILSSPWIQICNNFSPIIDYFPGTHNKLLKNVAFMKSYILEKVKEHQESMDMNNPQDFIDCFLMKMEKEKHNQPSEFTIESLENTAVDLFGAGTETTSTTLRYALLLLLKHPEVTAKVQEEIERVIGRNRSPCMQDRSHMPYTDAVVHEVQRYIDLLPTSLPHAVTCDIKFRNYLIPKGTTILISLTSVLHDNKEFPNPEMFDPHHFLDEGGNFKKSKYFMPFSAGKRICVGEALAGMELFLFLTSILQNFNLKSLVDPKNLDTTPVVNGFASVPPFYQLCFIPV | 0.9 | 0.043 ± 0.000 nmol/min/nmol P450 | 0.041 ± 0.005 nmol/min/nmol P450 | 0.77 | 0.081 ± 0.006 nmol/min/nmol P450 | 0.063 ± 0.003 nmol/min/nmol P450 | 169.8 ± 7.4 nmol/min/mg protein | Tolbutamide Hydroxylase Activity [6]: 122 + 29 pmol/min/nmol P450; Tolbutamide Hydroxylase Activity per nmol P450 [5]: 3.4 ± 0.15 nmol/min/nmol P450; Tolbutamide turnover number of Ile^359 allele relative to Leu^359 allele of 2C9 ([5]; recombinant microsomes adjusted for P450 content): 3 fold
4 | 2C18-Thr^385 (29c): recombinant 2C18 allelic variant 29c (Thr 385) in yeast microsomes; Table III does not state residue 2 (protein, UniProt P33260 26-490, looked up) Cytochrome P450 2C18: RGRLPSGPTPLPIIGNILQLDVKDMSKSLTNFSKVYGPVFTVYFGLKPIVVLHGYEAVKEALIDHGEEFSGRGSFPVAEKVNKGLGILFSNGKRWKEIRRFCLMTLRNFGMGKRSIEDRVQEEARCLVEELRKTNASPCDPTFILGCAPCNVICSVIFHDRFDYKDQRFLNLMEKFNENLRILSSPWIQVCNNFPALIDYLPGSHNKIAENFAYIKSYVLERIKEHQESLDMNSARDFIDCFLIKMEQEKHNQQSEFTVESLIATVTDMFGAGTETTSTTLRYGLLLLLKYPEVTAKVQEEIECVVGRNRSPCMQDRSHMPYTDAVVHEIQRYIDLLPTNLPHAVTCDVKFKNYLIPKGTTIITSLTSVLHNDKEFPNPEMFDPGHFLDKSGNFKKSDYFMPFSAGKRMCMGEGLARMELFLFLTTILQNFNLKSQVDPKDIDITPIANAFGRVPPLYQLCFIPV | 1.3 | 0.042 ± 0.004 nmol/min/nmol P450 | 0.054 ± 0.003 nmol/min/nmol P450 |  |  |  |  | Mephenytoin 4'-Hydroxylase Activity, S, no b5 ([1]; yeast microsomes without cytochrome b5, 0.4 mM substrate, means ± SE): 0.034 ± 0.008 nmol/min/nmol P450
5 | 2C18-Asp^2 Thr^385 (29c-1a): recombinant human P450 2C18 allelic variant 29c with correct Asp at position 2, Thr at 385 (protein, UniProt P33260 26-490, looked up) Cytochrome P450 2C18: RGRLPSGPTPLPIIGNILQLDVKDMSKSLTNFSKVYGPVFTVYFGLKPIVVLHGYEAVKEALIDHGEEFSGRGSFPVAEKVNKGLGILFSNGKRWKEIRRFCLMTLRNFGMGKRSIEDRVQEEARCLVEELRKTNASPCDPTFILGCAPCNVICSVIFHDRFDYKDQRFLNLMEKFNENLRILSSPWIQVCNNFPALIDYLPGSHNKIAENFAYIKSYVLERIKEHQESLDMNSARDFIDCFLIKMEQEKHNQQSEFTVESLIATVTDMFGAGTETTSTTLRYGLLLLLKYPEVTAKVQEEIECVVGRNRSPCMQDRSHMPYTDAVVHEIQRYIDLLPTNLPHAVTCDVKFKNYLIPKGTTIITSLTSVLHNDKEFPNPEMFDPGHFLDKSGNFKKSDYFMPFSAGKRMCMGEGLARMELFLFLTTILQNFNLKSQVDPKDIDITPIANAFGRVPPLYQLCFIPV |  |  |  | 1.3 | 0.116 ± 0.010 nmol/min/nmol P450 | 0.147 ± 0.025 nmol/min/nmol P450 | 9.3 ± 0.7 nmol/min/mg protein | Tolbutamide Hydroxylase Activity per nmol P450 [5]: 0.19 ± 0.02 nmol/min/nmol P450
6 | 2C8 Purified from Human Liver: cytochrome P450 2C8 purified from human liver microsomes (protein, UniProt P10632 1-490, looked up) Cytochrome P450 2C8: MEPFVVLVLCLSFMLLFSLWRQSCRRRKLPPGPTPLPIIGNMLQIDVKDICKSFTNFSKVYGPVFTVYFGMNPIVVFHGYEAVKEALIDNGEEFSGRGNSPISQRITKGLGIISSNGKRWKEIRRFSLTTLRNFGMGKRSIEDRVQEEAHCLVEELRKTKASPCDPTFILGCAPCNVICSVVFQKRFDYKDQNFLTLMKRFNENFRILNSPWIQVCNNFPLLIDCFPGTHNKVLKNVALTRSYIREKVKEHQASLDVNNPRDFIDCFLIKMEQEKDNQKSEFNIENLVGTVADLFVAGTETTSTTLRYGLLLLLKHPEVTAKVQEEIDHVIGRHRSPCMQDRSHMPYTDAVVHEIQRYSDLVPTGVPHAVTTDTKFRNYLIPKGTTIMALLTSVLHDDKEFPNPNIFDPGHFLDKNGNFKKSDYFMPFSAGKRICAGEGLARMELFLFLTTILQNFNLKSVDDLKNLNTTAVTKGIVSLPPSYQICFIPV |  |  |  | 1.6 | 0.032 ± 0.003 nmol/min/nmol P450 | 0.051 ± 0.030 nmol/min/nmol P450 |  | 
7 | 2C9 Purified from Human Liver: cytochrome P450 2C9 purified from human liver microsomes (protein, UniProt P11712 1-490, looked up) Cytochrome P450 2C9: MDSLVVLVLCLSCLLLLSLWRQSSGRGKLPPGPTPLPVIGNILQIGIKDISKSLTNLSKVYGPVFTLYFGLKPIVVLHGYEAVKEALIDLGEEFSGRGIFPLAERANRGFGIVFSNGKKWKEIRRFSLMTLRNFGMGKRSIEDRVQEEARCLVEELRKTKASPCDPTFILGCAPCNVICSIIFHKRFDYKDQQFLNLMEKLNENIKILSSPWIQICNNFSPIIDYFPGTHNKLLKNVAFMKSYILEKVKEHQESMDMNNPQDFIDCFLMKMEKEKHNQPSEFTIESLENTAVDLFGAGTETTSTTLRYALLLLLKHPEVTAKVQEEIERVIGRNRSPCMQDRSHMPYTDAVVHEVQRYIDLLPTSLPHAVTCDIKFRNYLIPKGTTILISLTSVLHDNKEFPNPEMFDPHHFLDEGGNFKKSKYFMPFSAGKRICVGEALAGMELFLFLTSILQNFNLKSLVDPKNLDTTPVVNGFASVPPFYQLCFIPV |  |  |  | 1.6 | 0.033 ± 0.001 nmol/min/nmol P450 | 0.051 ± 0.007 nmol/min/nmol P450 |  | Tolbutamide Hydroxylase Activity [6]: 109 ± 16 pmol/min/nmol P450
